# Patent US20180155451A1 (published 2018)
# T1: FcγRIIb extracellular domain with C-terminal His tag (human, UniProt P31994 43-217)
# T1 construct: extracellular domain; also called FcgRIIb; 2b; not shown: His tag at the C terminus
# T1 sequence (looked up): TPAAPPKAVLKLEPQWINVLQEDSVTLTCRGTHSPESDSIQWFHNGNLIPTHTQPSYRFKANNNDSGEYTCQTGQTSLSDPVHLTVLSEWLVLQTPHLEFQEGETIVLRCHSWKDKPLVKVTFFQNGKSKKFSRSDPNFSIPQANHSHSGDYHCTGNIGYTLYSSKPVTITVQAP
# B1: GpH7-A5/GpH7-B3 variant S298_02A/GpL16-k0 (antibody, human IgG1, kappa)
# heavy 1: not shown
# heavy 2: not shown
# light: DIVMTQSPLSLPVTPGEPASISCQASESLVHSNRNTYLHWYLQKPGQSPQLLIYKVSNRFSGVPDRFSGSGSGTDFTLKISRVEAEDVGVYYCSQNTHVPPTFGQGTKVEIERTVAAPSVFIFPPSDEQLKSGTASVVCLLNNFYPREAKVQWKVDNALQSGNSQESVTEQDSKDSTYSLSSTLTLSKADYEKHKVYACEVTHQGLSSPVTKSFNRGEC
# notes: position is EU numbering; also called He Ab
# B2: GpH7-A5/GpH7-B3 variant A330_03V/GpL16-k0 (antibody, human IgG1, kappa)
# heavy 1: not shown
# heavy 2: not shown
# light: B1 light
# notes: as for B1
# B3: GpH7-A5/GpH7-B3 variant E333_13S/GpL16-k0 (antibody, human IgG1, kappa)
# heavy 1: not shown
# heavy 2: not shown
# light: B1 light
# notes: as for B1
# B4: GpH7-A5/GpH7-B3 variant A330_07I/GpL16-k0 (antibody, human IgG1, kappa)
# heavy 1: not shown
# heavy 2: not shown
# light: B1 light
# notes: as for B1
# B5: GpH7-A5/GpH7-B3 variant I332_09D/GpL16-k0 (antibody, human IgG1, kappa)
# heavy 1: not shown
# heavy 2: not shown
# light: B1 light
# notes: as for B1
# B6: GpH7-A5/GpH7-B3 variant A330_08L/GpL16-k0 (antibody, human IgG1, kappa)
# heavy 1: not shown
# heavy 2: not shown
# light: B1 light
# notes: as for B1
# B7: GpH7-A5/GpH7-B3 variant I332_01G/GpL16-k0 (antibody, human IgG1, kappa)
# heavy 1: not shown
# heavy 2: not shown
# light: B1 light
# notes: as for B1
# B8: GpH7-A5/GpH7-B3 variant A330_06M/GpL16-k0 (antibody, human IgG1, kappa)
# heavy 1: not shown
# heavy 2: not shown
# light: B1 light
# notes: as for B1
# B9: GpH7-A5/GpH7-B3 variant A330_20W/GpL16-k0 (antibody, human IgG1, kappa)
# heavy 1: not shown
# heavy 2: not shown
# light: B1 light
# notes: as for B1
# B10: GpH7-A5/GpH7-B3 variant A330_10E/GpL16-k0 (antibody, human IgG1, kappa)
# heavy 1: not shown
# heavy 2: not shown
# light: B1 light
# notes: as for B1
# B11: GpH7-A5/GpH7-B3 variant A327_11K/GpL16-k0 (antibody, human IgG1, kappa)
# heavy 1: not shown
# heavy 2: not shown
# light: B1 light
# notes: as for B1
# B12: GpH7-A5/GpH7-B3 variant E333_02A/GpL16-k0 (antibody, human IgG1, kappa)
# heavy 1: not shown
# heavy 2: not shown
# light: B1 light
# notes: as for B1
# B13: GpH7-A5/GpH7-B3 variant E333_16H/GpL16-k0 (antibody, human IgG1, kappa)
# heavy 1: not shown
# heavy 2: not shown
# light: B1 light
# notes: as for B1
# B14: GpH7-A5/GpH7-B3 variant A330_04F/GpL16-k0 (antibody, human IgG1, kappa)
# heavy 1: not shown
# heavy 2: not shown
# light: B1 light
# notes: as for B1
# B15: GpH7-A5/GpH7-B3 variant I332_12R/GpL16-k0 (antibody, human IgG1, kappa)
# heavy 1: not shown
# heavy 2: not shown
# light: B1 light
# notes: as for B1
# B16: GpH7-A5/GpH7-B3 variant I332_10E/GpL16-k0 (antibody, human IgG1, kappa)
# heavy 1: not shown
# heavy 2: not shown
# light: B1 light
# notes: as for B1
# B17: GpH7-A5/GpH7-B3 variant A330_15Y/GpL16-k0 (antibody, human IgG1, kappa)
# heavy 1: not shown
# heavy 2: not shown
# light: B1 light
# notes: as for B1
# B18: GpH7-A5/GpH7-B3 variant E333_01G/GpL16-k0 (antibody, human IgG1, kappa)
# heavy 1: not shown
# heavy 2: not shown
# light: B1 light
# notes: as for B1
# B19: GpH7-A5/GpH7-B3 variant (T335_19Q)/GpL16-k0 (antibody, human IgG1, kappa)
# heavy 1: not shown
# heavy 2: not shown
# light: B1 light
# notes: Heterodimerized; only the B3 chain altered; also called He Ab T335_19Q
# B20: GpH7-A5/GpH7-B3 variant (T335_16H)/GpL16-k0 (antibody, human IgG1, kappa)
# heavy 1: not shown
# heavy 2: not shown
# light: B1 light
# notes: Heterodimerized; only the B3 chain altered; also called He Ab T335_16H
# B21: GpH7-A5/GpH7-B3 variant (Y296_11K)/GpL16-k0 (antibody, human IgG1, kappa)
# heavy 1: not shown
# heavy 2: not shown
# light: B1 light
# notes: Heterodimerized; only the B3 chain altered; also called He Ab Y296_11K
# Biological target: T2, FcγRIIIa extracellular domain with C-terminal His tag (human, UniProt P08637 17-208)
# T2 construct: extracellular domain; also called FcgRIIIa; 3a; not shown: His tag at the C terminus
# Experiment: SPR (Biacore); ratio of He/Con_3a (FcγRIIIa) to He/Con_2b (FcγRIIb)
# Procedure: (§1) The heterodimerized antibodies He Abs in which one of the H chains was introduced with an alteration were assayed for their binding activities to each activating FcγR and inhibitory FcγR according to the method described in Example 4. […] The activating FcγRs in FIGS. 26, 27, 28, and 29 are FcγRIa, FcγRIIa (R), FcγRIIa (H), and FcγRIIIa, respectively.
# (§2) Analysis of interaction between objective antibody and the FcγR was carried out using Biacore T100 (GE Healthcare). HBS-EP+ (GE Healthcare) was used as the running buffer, and the measurement temperature was set to 25° C. Chips produced by immobilizing the antigen peptide by the amine coupling method to a Series S Sencor Chip CM5 (GE Healthcare), or alternatively, chips produced by allowing preliminarily biotinylated antigen peptides to interact with and immobilize onto a Series S Sensor Chip SA (certified) (GE Healthcare) were used. Antibodies of interest were captured onto an antigen peptide-immobilized chip, and allowed to interact to each FcγR diluted with running buffer. To regenerate and repeatedly use the chip, the antibodies captured on the chip were washed off by reacting 10 mM glycine-HCl, pH 1.5.
# T2 sequence (P08637 17-208): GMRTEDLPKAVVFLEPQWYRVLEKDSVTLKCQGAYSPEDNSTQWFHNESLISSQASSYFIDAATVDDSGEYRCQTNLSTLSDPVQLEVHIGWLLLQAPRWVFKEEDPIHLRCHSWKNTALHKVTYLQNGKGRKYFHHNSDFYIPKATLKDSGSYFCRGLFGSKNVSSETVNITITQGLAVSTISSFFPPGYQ
row,He_3a/2b (IIIa/IIb) [ratio],Binder
1,2.18,B1
2,1.93,B2
3,1.26,B3
4,1.53,B4
5,1.41,B5
6,1.77,B6
7,1.27,B7
8,1.76,B8
9,1.37,B9
10,1.21,B10
11,2.53,B11
12,1.26,B12
13,1.24,B13
14,1.59,B14
15,1.55,B15
16,1.63,B16
17,1.32,B17
18,1.21,B18

# Biological target: T3, FcγRIa extracellular domain with C-terminal His tag (human, UniProt P12314 16-292)
# T3 construct: extracellular domain; Expressed in FreeStyle293 cells; used as analyte in Biacore; also called FcgRI; 1a; not shown: His tag at the C terminus
# Experiment: SPR (Biacore), captured antibody, FcγRIa analyte; relative to GpH7-A5/GpH7-B3/GpL16-k0 = 100
# T3 sequence (P12314 16-292): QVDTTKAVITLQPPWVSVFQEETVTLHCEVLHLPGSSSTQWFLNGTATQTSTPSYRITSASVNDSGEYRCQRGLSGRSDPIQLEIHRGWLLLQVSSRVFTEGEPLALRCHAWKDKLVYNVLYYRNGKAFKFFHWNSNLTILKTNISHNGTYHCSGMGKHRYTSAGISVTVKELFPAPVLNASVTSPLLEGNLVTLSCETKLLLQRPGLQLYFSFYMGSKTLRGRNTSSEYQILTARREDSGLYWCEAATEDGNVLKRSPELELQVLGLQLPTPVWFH
row,He/Con_1a,Binder
1,105 % of control,B19
2,106 % of control,B20
3,105 % of control,B21

# Biological target: T1, FcγRIIb extracellular domain with …
# Experiment: SPR (Biacore), antibody captured, FcγR as analyte; He Ab binding / GpH7-A5/GpH7-B3/GpL16-k0 binding x 100
# Procedure: as §1, §2
row,He/Con_2b (IIb binding),Binder
1,"73.4 relative, control = 100",B1
2,"52.4 relative, control = 100",B2
3,"81.8 relative, control = 100",B3
4,"67.1 relative, control = 100",B4
5,"147 relative, control = 100",B5
6,"70.5 relative, control = 100",B6
7,"87.1 relative, control = 100",B7
8,"80.5 relative, control = 100",B8
9,"76.1 relative, control = 100",B9
10,"70.1 relative, control = 100",B10
11,"12.5 relative, control = 100",B11
12,"83.8 relative, control = 100",B12
13,"83.3 relative, control = 100",B13
14,"92.8 relative, control = 100",B14
15,"48.9 relative, control = 100",B15
16,"142 relative, control = 100",B16
17,"95 relative, control = 100",B17
18,"81.4 relative, control = 100",B18

# Biological target: T2, FcγRIIIa extracellular domain with …
# Experiment: as above
# Procedure: as §1, §2
row,He/Con_3a (IIIa binding),Binder
1,"160 relative, control = 100",B1
2,"101 relative, control = 100",B2
3,"103 relative, control = 100",B3
4,"103 relative, control = 100",B4
5,"207 relative, control = 100",B5
6,"124 relative, control = 100",B6
7,"111 relative, control = 100",B7
8,"142 relative, control = 100",B8
9,"104 relative, control = 100",B9
10,"84.6 relative, control = 100",B10
11,"31.7 relative, control = 100",B11
12,"105 relative, control = 100",B12
13,"103 relative, control = 100",B13
14,"147 relative, control = 100",B14
15,"75.9 relative, control = 100",B15
16,"233 relative, control = 100",B16
17,"125 relative, control = 100",B17
18,"98.2 relative, control = 100",B18
